From PMC8551656, “Discovery of a novel role of tumor suppressor PDCD4 in stimulation of translation termination” (The Journal of Biological Chemistry, 2021)

Target: T1, poly(A)-binding protein (PABP) (human, UniProt P11940 1-636)
T1 construct: source: E. coli BL21, purified (Ni-NTA agarose, ion-exchange chromatography)
Assay: pull-down; GST-PDCD4 (40 pmol) incubated with PABP (40 pmol) in solution, 20 μl, 1 h at 4 °C, 25 mM Tris-HCl pH 7.5, 10% glycerol, 100 mM KCl, 2.5 mM MgCl2, 2 mM DTT, 0.25 mM spermidine, 0.2 mM GTP; then held on glutathione-sepharose 4B, four washes, release by TEV protease, western blot
Details: both partners purified

T1 sequence (P11940 whole entry): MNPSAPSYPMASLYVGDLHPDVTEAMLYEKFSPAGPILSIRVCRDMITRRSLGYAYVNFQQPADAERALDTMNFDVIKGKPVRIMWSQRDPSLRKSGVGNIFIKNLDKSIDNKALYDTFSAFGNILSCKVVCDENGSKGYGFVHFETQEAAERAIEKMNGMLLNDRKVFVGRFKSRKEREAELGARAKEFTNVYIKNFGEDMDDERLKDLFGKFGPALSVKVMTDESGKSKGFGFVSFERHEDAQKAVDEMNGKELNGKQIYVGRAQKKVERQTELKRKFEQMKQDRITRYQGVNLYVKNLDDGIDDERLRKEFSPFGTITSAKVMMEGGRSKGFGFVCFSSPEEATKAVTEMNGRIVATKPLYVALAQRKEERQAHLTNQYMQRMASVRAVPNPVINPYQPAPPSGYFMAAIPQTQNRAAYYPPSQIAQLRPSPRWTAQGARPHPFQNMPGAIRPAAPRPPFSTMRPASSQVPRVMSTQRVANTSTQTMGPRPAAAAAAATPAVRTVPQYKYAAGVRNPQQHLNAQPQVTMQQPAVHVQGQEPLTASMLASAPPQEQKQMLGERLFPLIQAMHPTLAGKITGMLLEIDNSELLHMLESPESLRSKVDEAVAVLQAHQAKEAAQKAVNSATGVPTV

B1: GST-tagged programmed cell death 4 protein (PDCD4) (natural protein, human, UniProt Q53EL6-1 1-469, looked up)
chain: MDVENEQILNVNPADPDNLSDSLFSGDEENAGTEEIKNEINGNWISASSINEARINAKAKRRLRKNSSRDSGRGDSVSDSGSDALRSGLTVPTSPKGRLLDRRSRSGKGRGLPKKGGAGGKGVWGTPGQVYDVEEVDVKDPNYDDDQENCVYETVVLPLDERAFEKTLTPIIQEYFEHGDTNEVAEMLRDLNLGEMKSGVPVLAVSLALEGKASHREMTSKLLSDLCGTVMSTTDVEKSFDKLLKDLPELALDTPRAPQLVGQFIARAVGDGILCNTYIDSYKGTVDCVQARAALDKATVLLSMSKGGKRKDSVWGSGGGQQSVNHLVKEIDMLLKEYLLSGDISEAEHCLKELEVPHFHHELVYEAIIMVLESTGESTFKMILDLLKSLWKSSTITVDQMKRGYERIYNEIPDINLDVPHSYSVLERFVEECFQAGIISKQLRDLCPSRGRKRFVSEGDGGRLKPESY
notes: human PDCD4, isoform 1, UniProt Q53EL6-1; cDNA cloned into pGEX-6p-1; printed primers run from the start codon to the last codon; Held on glutathione-sepharose by GST in the pull-down; also called GST-PDCD4; recombinant PDCD4; source: E. coli BL21, purified (glutathione-sepharose 4B, eluted with glutathione; HiTrapQ)
binding result: binds
